Laboratory results as given in publication PMC12644819 (Nature Communications, 2025).
Ends that are not written are not given here.

Assays:
LptD = molecular target: T1, LptD (E. coli, UniProt P31554 25-784, disulfide bonds Cys31-Cys724 and Cys173-Cys725); test: affinity purification with mass spectrometry; nickel-affinity chromatography and gel filtration of LptM^His (wild-type cells) or LptE^His (ΔlptM cells) from DDM-solubilised envelope; SDS-PAGE with Coomassie; ~15 kDa band identified by bottom-up mass spectrometry; settings: partners not purified
T1 construct: LptD, E. coli outer membrane LPS transporter, β-taco domain plus 26-stranded β-barrel; called full-length LptD in contrast to the β-barrel truncation; Untagged wild-type LptD; also called full-length LptD; endogenous LptD; source: E. coli BW25113, overproduced from pLptDEM^His or pLptDE^His, or endogenous; DDM-solubilised envelope fraction; co-purified (Ni-NTA, SEC)
T1 sequence (looked up): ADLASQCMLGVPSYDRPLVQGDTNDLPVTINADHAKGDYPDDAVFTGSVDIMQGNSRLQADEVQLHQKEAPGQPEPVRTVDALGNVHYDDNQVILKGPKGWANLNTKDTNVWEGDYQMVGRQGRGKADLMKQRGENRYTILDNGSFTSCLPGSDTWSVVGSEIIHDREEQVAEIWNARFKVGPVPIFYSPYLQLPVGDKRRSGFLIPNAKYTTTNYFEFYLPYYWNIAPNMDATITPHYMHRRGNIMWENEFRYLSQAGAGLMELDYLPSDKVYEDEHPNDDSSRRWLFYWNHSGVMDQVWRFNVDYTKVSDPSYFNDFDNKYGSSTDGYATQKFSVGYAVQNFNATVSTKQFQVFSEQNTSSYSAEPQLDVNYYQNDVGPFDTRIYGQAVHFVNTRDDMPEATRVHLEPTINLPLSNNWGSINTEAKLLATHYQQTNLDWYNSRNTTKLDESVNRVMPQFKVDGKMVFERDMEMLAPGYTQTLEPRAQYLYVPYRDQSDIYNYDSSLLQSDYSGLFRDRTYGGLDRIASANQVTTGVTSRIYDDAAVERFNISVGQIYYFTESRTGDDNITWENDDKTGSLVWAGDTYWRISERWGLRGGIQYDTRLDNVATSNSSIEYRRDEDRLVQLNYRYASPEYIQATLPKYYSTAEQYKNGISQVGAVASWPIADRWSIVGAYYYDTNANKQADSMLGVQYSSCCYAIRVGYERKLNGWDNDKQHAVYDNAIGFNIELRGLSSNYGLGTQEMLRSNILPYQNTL

LptDE^His = molecular target: T2, LptDE^His (E. coli, UniProt P31554 25-784; P0ADC1 19-193, lipoprotein); test: native MS; purified LptDEM^His and LptDE^His complexes; subpopulation with a mass shift of 14,301 Da; re-analysed and new spectra; settings: both partners purified
T2 construct: LptD, E. coli; LptE, E. coli; also called core translocon; the translocon; source: E. coli BW25113 (ΔlptM for native MS), from pLptDE^His or derivatives of pLptDME^His; Ni-NTA (and SEC) in DDM; copies: 1 + 1
T2 sequence (P0ADC1 19-193, one chain of several): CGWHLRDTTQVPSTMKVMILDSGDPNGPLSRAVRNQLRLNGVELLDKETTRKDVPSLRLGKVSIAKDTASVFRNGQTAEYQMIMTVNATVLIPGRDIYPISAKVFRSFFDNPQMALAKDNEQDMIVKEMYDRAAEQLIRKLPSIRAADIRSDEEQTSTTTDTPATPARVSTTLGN

LptDEM^His = molecular target: T3, LptDEM^His (E. coli, UniProt P31554 25-784; P0ADC1 19-193; P0ADN6 20-67, lipoprotein | lipoprotein); test: as above; settings: both partners purified
T3 construct: LptD, E. coli; LptE, E. coli; LptM, E. coli; source: E. coli BW25113 wild type, from pLptDEM^His; purified (Ni-NTA, SEC) in DDM; copies: 1 + 1 + 1
T3 sequence (P0ADC1 19-193, one chain of several): as above

B1: LptM^His (natural protein, E. coli, UniProt P0ADN6 20-67, looked up)
chain: CGLKGPLYFPPADKNAPPPTKPVETQTQSTVPDKNDRATGDGPSQVNY
modifications: also: lipoprotein, acyl tails on N-terminal Cys, His-tagged (LptM^His)
notes: LptM, E. coli lipoprotein; source: E. coli BW25113, from pLptDEM^His or pLptD^β-barrelEM^His; DDM-solubilised envelope fraction; purified (Ni-NTA, SEC)
B1: binds (LptD).

B2: LptY (natural protein, E. coli, UniProt P31063 16-137, looked up)
chain: CAEVENYNNVVKTPAPDWLAGYWQTKGPQRALVSPEAIGSLIVTKEGDTLDCRQWQRVIAVPGKLTLMSDDLTNVTVKRELYEVERDGNTIEYDGMTMERVDRPTAECAAALDKAPLPTPLP
modifications: lipoprotein
notes: LptY (formerly YedD), E. coli OM lipoprotein of ~14 kDa; an AlphaFold2 model was docked; also called YedD; source: endogenous, E. coli BW25113; co-purified with LptDEM^His or LptDE^His (Ni-NTA, SEC)
In the case of B2, the “stoichiometry N” value (LptDE^His) is reported as 1 LptD:LptE:LptY and the “stoichiometry N” value (LptDEM^His) is reported as 1 LptD:LptE:LptM:LptY.
